Experimental data reported in the RNAGym collection of RNA variant scans (doi:10.1073/pnas.2313332121).
Fewer inactive variants are shown than the library holds.

B1: TPR 5TU (parent)
chain: GGAUCUUCUCGAUCUAACAAAAAAGACAAAUCUGCCACAAAGCUUGAGAGCAUCUUCGGAUGCAGAGGCGGCAGCCUUCGGUGGCGCGAUAGCGCCAACGUUCUCAACUAUGACACGCAAAACGCGUGCUCCGUUGAAUGGAGUUUAUCAUG

Variants of: B1
Assay: polymerase ribozyme fitness, log enrichment relative to wild type (log ratio); higher = more active; in vitro selection for triplet polymerase activity
How it was run: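 To select mutant libraries of each subunit of a heterodimeric triplet polymerase ribozyme, built by PCR and transcribed, each was annealed with a biotinylated primer, partner subunit and triplets, then incubated frozen at −7 °C. Extended constructs were gel-excised, captured on streptavidin beads and amplified by RT-PCR, in one round carried out in triplicate. Illumina sequencing of input and output libraries kept genotypes with ≥10 input reads and ≥1 read per output. Fitness is the base-2 logarithm of genotype enrichment relative to wild-type enrichment, from inverse-variance-weighted replicate averages.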

Variant	polymerase ribozyme fitness (log ratio)
A17G G133U	-3.47
C18G U31A A120G G128U A137G	-4.17
C18G U78A G83A C118U	≤ -4.2
A17G G42C C43A C85A G143U	≤ -4.2
C18G A24C G34A C57A C85U A89U A97G A120G A121U	≤ -4.2
A17U A41C G94C	-1.13
A17U A52C A64C G133A A138C	≤ -4.2
A17U G92A	-2.84
C18G C35U C75U C95U A120G U134C	-2.68
A17U C32A A37U A41U	≤ -4.2
A17G C96G	-1.29
A17G C96U	0.456
C18G C85A U145G A147U	-0.193
C18U A30U G65U G84U C105U	≤ -4.2
C18U A23U A91U C95G U104C C118A A147U	≤ -4.2
A17G G86U A97U	-2.08
A17U C79U C85U A97U	≤ -4.2
A17U A60U	-0.153
A17G G59A G143C	-1.26
C18G C57A U134G U145A	-3.18
C18G A29C C35A A89U G128A U144G	≤ -4.2

Variant	polymerase ribozyme fitness (log ratio)
C18G A20G G25C U33G G68U C96U A98G	≤ -4.2
C18G A21G A24U A41C U53G C54G G84U G92U C93G G143C	≤ -4.2
C18G A37C C93A A115G	-4.01
A17U U55G G68U G84A C103A G152A	≤ -4.2
C18G C76G C85A U145A	≤ -4.2
C18A A21U A29U U56A C95A A137G A142C	≤ -4.2
C18G G42A C54U G94A	≤ -4.2
C18G U56A A73U G83C	-3.86
A17U C93U	-1.07
A17U A39C A60C G86C C87A	≤ -4.2
A17U A52U C57U C96U A98U C103G A121C G140C	≤ -4.2
C18G A24G C57U C93G G94C G117C	≤ -4.2
C18U A22G A49C G86A C131G	-4.14
A17U C76U C96U	0.123
A17G C85A C129A	-2.88
A17G G59U G80A C85A	-0.447
A17U U33G G34C A47G	≤ -4.2
C18G A26U A47U G67C C105G U146A C149G	≤ -4.2
A17U G59U C93U C114G	-3
A17G C76U	-0.119
A17U C87U C125U	-1.39

Variant	polymerase ribozyme fitness (log ratio)
C18G G59A C75U C93A A107C C118A	≤ -4.2
A17U C38A U53A G74A C95U	≤ -4.2
A17U A40C C43G A52G G92C G128C	≤ -4.2
C18G A60C G84U C125U	-3.76
C18A A26U G84A A138G	≤ -4.2
A17G G84U G126A	-1.39
C18G C57A C93U U135C U145G	-3.11
A17G C93G C95U	≤ -4.2
C18U A29U A52C C93A C125G U144A A147U	≤ -4.2
C18U A21C U55A	-0.649
A17U C18A C54U U55G C75U C95A	-1.89
A17U C18U C96G C125U	-1.1
A17U A29U A37C C75U G80U G92A C125U A142C	≤ -4.2
C18A G70A G84U U130G	≤ -4.2
A17U A24C A26G C57U G86A	≤ -4.2
A17U U44A C54G U55G G62C C87A C99U A150G G152C	≤ -4.2
A17G G48C G94A C95U	-3.29
A17G C95U G141A	0.672
A17U C18G A41G A89C G126A C132U	-3.84
C18A C35G A39U G84U G126A A150C	≤ -4.2
C18G C38A C69G C87U G143U U145A	-3.47

Variant	polymerase ribozyme fitness (log ratio)
C18A A19C C35A	-2.88
A17U G83A C96U C125U C129U	-1.96
C18G A21G	-0.433
A17U A40C G58C C76U G84U U144G	-0.372
C18G U31C G59C G81A C116G A138G	-4.15
A17U C114U	-1.91
C18G C32U C43U A89C	≤ -4.2
C18U A37U U55A G86A	-3.67
C18G A39G A40U G67A U90C A97G C99U	≤ -4.2
A17U A19C C38A G42C U56A U78G A113U C132G A142G U148A	≤ -4.2
C18A G141C	-0.603
A17U A20U G50C	≤ -4.2
A17U C18U A20G C93U A115G	-4.19
A17G G58A G59C C69U C95U U104A	-3.74
C18G C32G A66U A89G C95G A107U	≤ -4.2
C18G A24U U33A G124A U135A	≤ -4.2
C18A U31G G84C A89U	-2.91
A17U A22U U90G C125A U139C	≤ -4.2
C18A A22C A23U A37C C72U G88A C125U U146G	≤ -4.2
A17U G83U	-1.65
